The test concerns human OPC. Briefly: Expression of CNPase in human OPC in primary culture stimulated by MSRV-Env, with or without GNbAC1 (immunocytochemistry). It counts as cell-based. The note with it: for CNPase positive cells, normalized to control condition (buffer = 100%): pooled data. On the procedure: Full length recombinant MSRV-Env was produced and purified by PX′Therapeutics (548 aa; 61.44 KDa) (batch 110719-1). The initial concentration was 0.6 mg/ml (9.76 μM). MSRV-Env Buffer (20 mM Trizma-HCl, pH 7.5, 150 mM NaCl, 1.5% SDS, 10 mM DTT) was provided by PX′Therapeutics. This solution was used as a negative control. GNbAC1 (Batch T96/bAC1/B1; GMP production) was produced and purified by Polymun Scientific, Vienna, Austria. The initial concentration was 10 mg/ml (68.03 μM).
Human OPC were stimulated with the different treatments either by coating solutions on the cell culture plate surface before cells seeding or by adding them in the cell culture medium after cells seeding. In any case, labtek 8-wells chamber slides (Nunc) were previously coated with poly-L-lysine (Sigma-Aldrich) overnight at 37° C.
The different treatments were diluted in PBS under a sterile laminar flow hood (Fischer Bioblock, France) and the Labtek 8 wells chambers slides (Nunc; 250 μl per well) were coated as follows: • MSRV-Env (1 μg/ml) coated for 2 hours at 37° C. • MSRV-Env Buffer (same dilution than MSRV-Env) coated for 2 hours at 37° C. • MSRV-Env+GNbAC1 A1: MSRV-Env (1 μg/ml) and GNbAC1 (7.35 μg/ml=50 nM) mixture coated for 2 hours at 37° C. • MSRV-Env+GNbAC1 A2: MSRV-Env (1 μg/ml) and GNbAC1 (29.4 μg/ml=200 nM) mixture coated for 2 hours at 37° C. • MSRV-Env+GNbAC1 B1: MSRV-Env (1 μg/ml) coated for 2 hours at 37° C., washed with PBS and subsequently coated with GNbAC1 (7.35 μg/ml=50 nM) for 1 hour at 37° C. • MSRV-Env+GNbAC1 B2: MSRV-Env (1 μg/ml) coated for 2 hours at 37° C., washed with PBS and subsequently coated with GNbAC1 (29.4 μg/ml=200 nM) for 1 hour at 37° C. • GNbAC1 A1 alone: GNbAC1 (7.35 μg/ml=50 nM) coated for 2 hours at 37° C. • GNbAC1 A2 alone: GNbAC1 (29.4 μg/ml=200 nM) coated for 2 hours at 37° C. • GNbAC1 B1 alone: PBS for 2 hours at 37° C., then coated with GNbAC1 (7.35 μg/ml=50 nM) for 1 hour at 37° C. • GNbAC1 B2 alone: PBS for 2 hours at 37° C., then coated with GNbAC1 (29.4 μg/ml=200 nM) for 1 hour at 37° C. • BSA (1 μg/ml) coated for 2 hours at 37° C. • BSA+GNbAC1 A1: BSA (1 μg/ml) and GNbAC1 (7.35 μg/ml=50 nM) mixture coated for 2 hours at 37° C. • BSA+GNbAC1 A2: BSA (1 μg/ml) and GNbAC1 (29.4 μg/ml=200 nM) mixture coated for 2 hours at 37° C. • BSA+GNbAC1 B1: BSA (1 μg/ml) coated for 2 hours at 37° C., washed with PBS and subsequently coated with GNbAC1 (7.35 μg/ml=50 nM) for 1 hour at 37° C. • BSA+GNbAC1 B2: BSA (1 μg/ml) coated for 2 hours at 37° C., washed with PBS and subsequently coated with GNbAC1 (29.4 μg/ml=200 nM) for 1 hour at 37° C. Human Oligodendrocyte Precursor Cells Culture
The vial containing the human OPC was placed in a 37° C. water bath and gently agitated by rotation until the content was completely thawed. The cells were gently resuspended with a 1 ml Gilson pipette. Then, they were diluted in complete OPCM, and seeded into the 8-wells labtek culture vessels (7000 cells/cm^2=10000 cells per well) previously coated with poly-L-lysine (0.01%, Sigma) and with (or without) the treatments described above (see 3.2.1.1) under a sterile laminar flow hood (Fischer Bioblock, France). The cultures were incubated at 37° C.; 5% CO2 until subsequent immunocytochemistry experiments. The growth medium was changed the next day to remove the residual DMSO and unattached cells in the cultures treated for 72 hours.
After 3 hours of pre-cultivation (see 3.2.1.2) of the human OPC in the 8-well labtek culture vessels, the cells were incubated at 37° C. for 24 hours or 72 hours in 8-wells labteks (250 μl/well) with the addition of the following solutions: • MSRV-Env Buffer, used as a negative control, added in complete cell culture medium • MSRV-Env added at 3 nM (0.184 μg/ml) in complete cell culture medium • MSRV-Env (3 nM)+GNbAC1 (200 nM; 29.4 μg/ml) mixture added in complete cell culture medium • GNbAC1 (200 nM) alone added in complete cell culture medium Expression of TLR4 and Myelination Markers in OPC In Vitro […]

Experimental findings from patent US10752675B2, “Compounds for treating the remyelination blockade in diseases associated with the expression of HERV-W envelope protein” (GENEURO S.A., priority 2012, dated 2020) are described below.

“Also recorded” adds a separate entry of the source.

B1: GNbAC1: recombinant humanized anti-Env IgG4 monoclonal antibody comprising the CDRs of SEQ ID No. 1 to 6 (antibody, chains of the INN, looked up, V domains shown)
VH: QVQLVQSGAEVKKPGSSVKVSCKASGYTFTDYEMHWVRQAPGQGLEWIGAVAPETGGTAYNQKFKGRATITADKSTSTAYMELSSLRSEDTAVYYCTSTVVPFAYWGQGTLVTVSS
VL: QIQLTQSPSSLSASVGDRVTITCSASSSVSYMYWYQQKPGKAPKAWIYRTSNLASGVPSRFSGSGSGTDYTLTISSLQPEDFATYYCQQYQSLPLTFGGGTKVEIK
For B1, the “effect on percentage of CNPase positive OPC without MSRV-Env” value (GNbAC1 50 nM or 200 nM coated alone or with BSA 1 μg/ml, 24 hours) is on record as “no effect”. Besides, the “effect on the decrease of CNPase positive cells induced by coated MSRV-Env” value (GNbAC1 50 nM or 200 nM, protocols GNbAC1-A and GNbAC1-B, 24 hours) is “significantly inhibits; also recorded: fully inhibits MSRV-Env effect”. In addition, the “percentage of CNPase positive cells” value turned out to be 74±2% (GNbAC1 200 nM alone in culture medium, 24 hours); 69±4% (GNbAC1-A 50 nM (mixture with MSRV-Env 1 μg/ml coated), 24 hours, OPC ICC 02); 80±2% (GNbAC1-A 200 nM (mixture with MSRV-Env 1 μg/ml coated), 24 hours, OPC ICC 02); 90±2% (GNbAC1-A 200 nM, coated MSRV-Env 1 μg/ml, 24 hours, OPC ICC 03); 96±3% (GNbAC1-B 50 nM (coated after MSRV-Env 1 μg/ml), 24 hours, OPC ICC 02); 76±4% (GNbAC1-B 200 nM (coated after MSRV-Env 1 μg/ml), 24 hours, OPC ICC 02). For the same molecule, the “percentage of CNPase positive cells” value reads like this: (GNbAC1-B 200 nM, coated MSRV-Env 1 μg/ml, 24 hours, OPC ICC 03) 91±4%; (MSRV-Env 3 nM + GNbAC1 200 nM in culture medium, 24 hours) 76±2%. In addition, where the note is “GNbAC1 200 nM alone, 24 hours”, the “effect on CNPase expression of GNbAC1 alone in culture medium” value is “no effect; also recorded: does not show any effect alone”. The “effect on the inhibition of CNPase expression induced by coated MSRV-Env” value (GNbAC1 200 nM, both protocols, 24 hours, OPC ICC 03) is “completely reverses; also recorded: fully inhibits MSRV-Env effect”. The “CNPase positive cells, normalized to control condition (buffer = 100%)” value (GNbAC1-A 200 nM with coated MSRV-Env) is recorded as 102±1% and the “CNPase positive cells, normalized to control condition (buffer = 100%)” value (GNbAC1-B 200 nM with coated MSRV-Env) amounted to 101±1%. In addition, the “effect on the decrease of CNPase expression induced by MSRV-Env in culture medium” value (MSRV-Env 3 nM, GNbAC1 200 nM, 24 hours) is given as “fully antagonizes; also recorded: inhibits completely this effect”.
